Measurements published in article PMC9482650, “Quantitative fragmentomics allow affinity mapping of interactomes” (Nature Communications, 2022).

T1: DVL3, Q92997
T1 sequence (Q92997 244-331, limits assumed, looked up): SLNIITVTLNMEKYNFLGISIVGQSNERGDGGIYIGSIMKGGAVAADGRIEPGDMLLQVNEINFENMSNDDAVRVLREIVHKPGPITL

T2: ARHGEF11, O15085
T2 sequence (O15085 42-136, limits assumed, looked up): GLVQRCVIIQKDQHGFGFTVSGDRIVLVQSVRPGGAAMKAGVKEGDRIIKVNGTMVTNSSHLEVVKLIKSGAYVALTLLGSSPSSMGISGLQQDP

T3: RAPGEF6, Q8TEU7
T3 sequence (Q8TEU7 525-625, limits assumed, looked up): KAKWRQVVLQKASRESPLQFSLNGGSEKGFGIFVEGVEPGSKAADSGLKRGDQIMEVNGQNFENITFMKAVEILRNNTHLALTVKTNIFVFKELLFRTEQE

T4: APBA3_1, O96018
T4 sequence (O96018 389-490, limits assumed, looked up): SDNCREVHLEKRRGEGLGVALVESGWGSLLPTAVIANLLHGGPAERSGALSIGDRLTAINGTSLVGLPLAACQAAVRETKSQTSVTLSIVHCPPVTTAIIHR

T5: APBA2_1, Q99767
T5 sequence (Q99767 563-664, limits assumed, looked up): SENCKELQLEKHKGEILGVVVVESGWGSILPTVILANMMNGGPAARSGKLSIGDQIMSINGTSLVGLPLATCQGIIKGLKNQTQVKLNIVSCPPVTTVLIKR

T6: MPP6, Q9NZW5
T6 sequence (Q9NZW5 125-219, limits assumed, looked up): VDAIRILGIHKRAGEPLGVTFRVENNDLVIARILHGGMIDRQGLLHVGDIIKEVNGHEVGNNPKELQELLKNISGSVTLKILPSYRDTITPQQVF

T7: SNTA1, Q13424
T7 sequence (Q13424 82-180, limits assumed, looked up): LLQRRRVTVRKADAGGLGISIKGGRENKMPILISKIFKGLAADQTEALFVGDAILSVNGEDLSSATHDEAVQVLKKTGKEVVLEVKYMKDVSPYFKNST

T8: PTPN13_1, Q12923
T8 sequence (Q12923 1088-1188, limits assumed, looked up): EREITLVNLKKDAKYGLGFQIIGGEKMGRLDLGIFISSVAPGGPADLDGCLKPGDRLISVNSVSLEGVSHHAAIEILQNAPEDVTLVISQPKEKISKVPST

T9: LRRC7, Q96NW7
T9 sequence (Q96NW7 1440-1537, limits assumed, looked up): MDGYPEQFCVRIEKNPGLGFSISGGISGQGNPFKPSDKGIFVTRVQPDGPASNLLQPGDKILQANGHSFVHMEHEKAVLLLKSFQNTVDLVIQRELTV

T10: DLG3_1, Q92796
T10 sequence (Q92796 125-227, limits assumed, looked up): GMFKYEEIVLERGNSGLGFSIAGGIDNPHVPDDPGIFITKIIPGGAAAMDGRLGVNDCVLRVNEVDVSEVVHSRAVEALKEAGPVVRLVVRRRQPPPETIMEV

T11: PDZD2_2, O15018
T11 sequence (O15018 329-429, limits assumed, looked up): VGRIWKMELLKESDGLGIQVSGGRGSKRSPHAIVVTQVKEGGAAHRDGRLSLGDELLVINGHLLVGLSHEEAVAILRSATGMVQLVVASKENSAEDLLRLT

T12: SNTB1, Q13884
T12 sequence (Q13884 107-205, limits assumed, looked up): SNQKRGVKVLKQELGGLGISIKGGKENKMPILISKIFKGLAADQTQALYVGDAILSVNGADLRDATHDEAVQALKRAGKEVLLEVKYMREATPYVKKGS

T13: MPP7, Q5T2T1
T13 sequence (Q5T2T1 134-230, limits assumed, looked up): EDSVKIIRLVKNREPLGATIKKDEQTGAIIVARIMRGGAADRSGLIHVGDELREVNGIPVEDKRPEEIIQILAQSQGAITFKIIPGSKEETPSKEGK


Molecular target: T1, DVL3, Q92997
Assay: holdup assay
Parameters: key: below the threshold = too weak to quantify, mostly under pKd 3.1 to 4
Details: plain residues with an end cap or a label only (N-terminal biotin on a linker: ttds)

Row | pKd | Binder
1 | below the threshold | LDSQIQETSI [MAP4, P27816]

Molecular target: HTRA2, O43464
Assay: holdup assay
Parameters: key: below the threshold = too weak to quantify, mostly under pKd 3.1 to 4
Details: plain residues with an end cap or a label only (N-terminal biotin on a linker: ttds)

Chain of HTRA2, O43464 (O43464 355-458): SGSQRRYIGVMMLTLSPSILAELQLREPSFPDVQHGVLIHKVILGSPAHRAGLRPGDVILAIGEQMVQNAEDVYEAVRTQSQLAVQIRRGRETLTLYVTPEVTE

Row | pKd | Binder
2 | below the threshold | LDSQIQETSI [MAP4, P27816]

Molecular target: AHNAK1, Q09666
Assay: holdup assay
Parameters: key: below the threshold = too weak to quantify, mostly under pKd 3.1 to 4
Details: plain residues with an end cap or a label only (N-terminal biotin on a linker: ttds)

Chain of AHNAK1, Q09666 (Q09666 4-100): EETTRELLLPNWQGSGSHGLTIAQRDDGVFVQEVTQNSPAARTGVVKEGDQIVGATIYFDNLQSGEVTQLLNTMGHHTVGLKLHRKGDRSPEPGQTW

Row | pKd | Binder
3 | below the threshold | LDSQIQETSI [MAP4, P27816]

Molecular target: DLG5_1, Q8TDM6
Assay: holdup assay
Parameters: key: below the threshold = too weak to quantify, mostly under pKd 3.1 to 4
Details: plain residues with an end cap or a label only (N-terminal biotin on a linker: ttds)

Chain of DLG5_1, Q8TDM6 (Q8TDM6 617-713): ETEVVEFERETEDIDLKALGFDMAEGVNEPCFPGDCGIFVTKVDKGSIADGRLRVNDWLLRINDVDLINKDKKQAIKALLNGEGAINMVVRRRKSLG

Row | pKd | Binder
4 | below the threshold | LDSQIQETSI [MAP4, P27816]

Molecular target: T2, ARHGEF11, O15085
Assay: holdup assay
Parameters: key: below the threshold = too weak to quantify, mostly under pKd 3.1 to 4
Details: plain residues with an end cap or a label only (N-terminal biotin on a linker: ttds)

Row | pKd | Binder
5 | below the threshold | LDSQIQETSI [MAP4, P27816]

Molecular target: MAGI2_6, Q86UL8
Assay: holdup assay
Parameters: key: below the threshold = too weak to quantify, mostly under pKd 3.1 to 4
Details: plain residues with an end cap or a label only (N-terminal biotin on a linker: ttds)

Chain of MAGI2_6, Q86UL8 (Q86UL8 1141-1229): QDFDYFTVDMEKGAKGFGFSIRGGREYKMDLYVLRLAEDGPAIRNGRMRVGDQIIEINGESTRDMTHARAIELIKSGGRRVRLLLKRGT

Row | pKd | Binder
6 | 4.05 | LDSQIQETSI [MAP4, P27816]

Molecular target: T3, RAPGEF6, Q8TEU7
Assay: holdup assay
Parameters: key: below the threshold = too weak to quantify, mostly under pKd 3.1 to 4
Details: plain residues with an end cap or a label only (N-terminal biotin on a linker: ttds)

Row | pKd | Binder
7 | below the threshold | LDSQIQETSI [MAP4, P27816]

Molecular target: T4, APBA3_1, O96018
Assay: holdup assay
Parameters: key: below the threshold = too weak to quantify, mostly under pKd 3.1 to 4
Details: plain residues with an end cap or a label only (N-terminal biotin on a linker: ttds)

Row | pKd | Binder
8 | below the threshold | LDSQIQETSI [MAP4, P27816]

Molecular target: SNX27, Q96L92
Assay: holdup assay
Parameters: key: below the threshold = too weak to quantify, mostly under pKd 3.1 to 4
Details: plain residues with an end cap or a label only (N-terminal biotin on a linker: ttds)

Row | pKd | Binder
9 | 5.73 | LDSQIQETSI [MAP4, P27816]

Molecular target: T5, APBA2_1, Q99767
Assay: holdup assay
Parameters: key: below the threshold = too weak to quantify, mostly under pKd 3.1 to 4
Details: plain residues with an end cap or a label only (N-terminal biotin on a linker: ttds)

Row | pKd | Binder
10 | below the threshold | LDSQIQETSI [MAP4, P27816]

Molecular target: PARD3_3, Q8TEW0
Assay: holdup assay
Parameters: key: below the threshold = too weak to quantify, mostly under pKd 3.1 to 4
Details: plain residues with an end cap or a label only (N-terminal biotin on a linker: ttds)

Chain of PARD3_3, Q8TEW0 (Q8TEW0 582-685): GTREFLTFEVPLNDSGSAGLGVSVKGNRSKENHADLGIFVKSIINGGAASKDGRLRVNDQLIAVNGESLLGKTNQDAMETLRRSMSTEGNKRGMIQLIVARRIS

Row | pKd | Binder
11 | 3.86 | LDSQIQETSI [MAP4, P27816]

Molecular target: T6, MPP6, Q9NZW5
Assay: holdup assay
Parameters: key: below the threshold = too weak to quantify, mostly under pKd 3.1 to 4
Details: plain residues with an end cap or a label only (N-terminal biotin on a linker: ttds)

Row | pKd | Binder
12 | below the threshold | LDSQIQETSI [MAP4, P27816]

Molecular target: DLG2_3, Q15700
Assay: holdup assay
Parameters: key: below the threshold = too weak to quantify, mostly under pKd 3.1 to 4
Details: plain residues with an end cap or a label only (N-terminal biotin on a linker: ttds)

Row | pKd | Binder
13 | 4.07 | LDSQIQETSI [MAP4, P27816]

Molecular target: IL16_4, Q14005
Assay: holdup assay
Parameters: key: below the threshold = too weak to quantify, mostly under pKd 3.1 to 4
Details: plain residues with an end cap or a label only (N-terminal biotin on a linker: ttds)

Chain of IL16_4, Q14005 (Q14005 1229-1329): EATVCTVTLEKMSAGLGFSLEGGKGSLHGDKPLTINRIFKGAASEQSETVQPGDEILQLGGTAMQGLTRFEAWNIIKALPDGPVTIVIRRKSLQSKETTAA

Row | pKd | Binder
14 | below the threshold | LDSQIQETSI [MAP4, P27816]

Molecular target: T7, SNTA1, Q13424
Assay: holdup assay
Parameters: key: below the threshold = too weak to quantify, mostly under pKd 3.1 to 4
Details: plain residues with an end cap or a label only (N-terminal biotin on a linker: ttds)

Row | pKd | Binder
15 | 4.8 | LDSQIQETSI [MAP4, P27816]

Molecular target: LAP2, Q96RT1
Assay: holdup assay
Parameters: key: below the threshold = too weak to quantify, mostly under pKd 3.1 to 4
Details: plain residues with an end cap or a label only (N-terminal biotin on a linker: ttds)

Chain of LAP2, Q96RT1 (Q96RT1 other isoform, or with tags, fused parts or gaps): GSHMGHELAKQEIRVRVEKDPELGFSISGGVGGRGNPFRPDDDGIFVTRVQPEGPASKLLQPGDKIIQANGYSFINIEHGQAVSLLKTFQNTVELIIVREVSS

Row | pKd | Binder
16 | 3.86 | LDSQIQETSI [MAP4, P27816]

Molecular target: GRIP2_6, Q9C0E4
Assay: holdup assay
Parameters: key: below the threshold = too weak to quantify, mostly under pKd 3.1 to 4
Details: plain residues with an end cap or a label only (N-terminal biotin on a linker: ttds)

Chain of GRIP2_6, Q9C0E4 (Q9C0E4 648-740): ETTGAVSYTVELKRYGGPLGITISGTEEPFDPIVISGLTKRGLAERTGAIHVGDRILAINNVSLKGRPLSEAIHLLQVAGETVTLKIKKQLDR

Row | pKd | Binder
17 | below the threshold | LDSQIQETSI [MAP4, P27816]

Molecular target: T8, PTPN13_1, Q12923
Assay: holdup assay
Parameters: key: below the threshold = too weak to quantify, mostly under pKd 3.1 to 4
Details: plain residues with an end cap or a label only (N-terminal biotin on a linker: ttds)

Row | pKd | Binder
18 | below the threshold | LDSQIQETSI [MAP4, P27816]

Molecular target: T9, LRRC7, Q96NW7
Assay: holdup assay
Parameters: key: below the threshold = too weak to quantify, mostly under pKd 3.1 to 4
Details: plain residues with an end cap or a label only (N-terminal biotin on a linker: ttds)

Row | pKd | Binder
19 | below the threshold | LDSQIQETSI [MAP4, P27816]

Molecular target: FRMPD2_1, Q68DX3
Assay: holdup assay
Parameters: key: below the threshold = too weak to quantify, mostly under pKd 3.1 to 4
Details: plain residues with an end cap or a label only (N-terminal biotin on a linker: ttds)

Chain of FRMPD2_1, Q68DX3 (Q68DX3 770-861): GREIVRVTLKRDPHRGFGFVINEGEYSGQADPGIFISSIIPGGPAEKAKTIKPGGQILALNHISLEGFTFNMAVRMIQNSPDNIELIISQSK

Row | pKd | Binder
20 | below the threshold | LDSQIQETSI [MAP4, P27816]

Molecular target: T10, DLG3_1, Q92796
Assay: holdup assay
Parameters: key: below the threshold = too weak to quantify, mostly under pKd 3.1 to 4
Details: plain residues with an end cap or a label only (N-terminal biotin on a linker: ttds)

Row | pKd | Binder
21 | below the threshold | LDSQIQETSI [MAP4, P27816]

Molecular target: T11, PDZD2_2, O15018
Assay: holdup assay
Parameters: key: below the threshold = too weak to quantify, mostly under pKd 3.1 to 4
Details: plain residues with an end cap or a label only (N-terminal biotin on a linker: ttds)

Row | pKd | Binder
22 | 4.36 | LDSQIQETSI [MAP4, P27816]

Molecular target: T12, SNTB1, Q13884
Assay: holdup assay
Parameters: key: below the threshold = too weak to quantify, mostly under pKd 3.1 to 4
Details: plain residues with an end cap or a label only (N-terminal biotin on a linker: ttds)

Row | pKd | Binder
23 | 4.93 | LDSQIQETSI [MAP4, P27816]

Molecular target: FRMPD2_3, Q68DX3
Assay: holdup assay
Parameters: key: below the threshold = too weak to quantify, mostly under pKd 3.1 to 4
Details: plain residues with an end cap or a label only (N-terminal biotin on a linker: ttds)

Chain of FRMPD2_3, Q68DX3 (Q68DX3 1073-1166): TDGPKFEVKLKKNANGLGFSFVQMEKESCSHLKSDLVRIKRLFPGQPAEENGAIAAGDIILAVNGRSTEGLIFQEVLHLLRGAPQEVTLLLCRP

Row | pKd | Binder
24 | below the threshold | LDSQIQETSI [MAP4, P27816]

Molecular target: T13, MPP7, Q5T2T1
Assay: holdup assay
Parameters: key: below the threshold = too weak to quantify, mostly under pKd 3.1 to 4
Details: plain residues with an end cap or a label only (N-terminal biotin on a linker: ttds)

Row | pKd | Binder
25 | below the threshold | LDSQIQETSI [MAP4, P27816]
